{"source": "paper PMC6756068", "about": "“The NF2 tumor suppressor merlin interacts with Ras and RasGAP, which may modulate Ras signaling” (Oncogene, 2019)", "target": "T1, full-length (FL) RasGAP purified from E. coli (UniProt P20936 1-1047)", "T1 construct": "p120RasGAP (RASA1), full length; also called purified FL RasGAP; source: E. coli, purified", "T1 sequence (looked up)": "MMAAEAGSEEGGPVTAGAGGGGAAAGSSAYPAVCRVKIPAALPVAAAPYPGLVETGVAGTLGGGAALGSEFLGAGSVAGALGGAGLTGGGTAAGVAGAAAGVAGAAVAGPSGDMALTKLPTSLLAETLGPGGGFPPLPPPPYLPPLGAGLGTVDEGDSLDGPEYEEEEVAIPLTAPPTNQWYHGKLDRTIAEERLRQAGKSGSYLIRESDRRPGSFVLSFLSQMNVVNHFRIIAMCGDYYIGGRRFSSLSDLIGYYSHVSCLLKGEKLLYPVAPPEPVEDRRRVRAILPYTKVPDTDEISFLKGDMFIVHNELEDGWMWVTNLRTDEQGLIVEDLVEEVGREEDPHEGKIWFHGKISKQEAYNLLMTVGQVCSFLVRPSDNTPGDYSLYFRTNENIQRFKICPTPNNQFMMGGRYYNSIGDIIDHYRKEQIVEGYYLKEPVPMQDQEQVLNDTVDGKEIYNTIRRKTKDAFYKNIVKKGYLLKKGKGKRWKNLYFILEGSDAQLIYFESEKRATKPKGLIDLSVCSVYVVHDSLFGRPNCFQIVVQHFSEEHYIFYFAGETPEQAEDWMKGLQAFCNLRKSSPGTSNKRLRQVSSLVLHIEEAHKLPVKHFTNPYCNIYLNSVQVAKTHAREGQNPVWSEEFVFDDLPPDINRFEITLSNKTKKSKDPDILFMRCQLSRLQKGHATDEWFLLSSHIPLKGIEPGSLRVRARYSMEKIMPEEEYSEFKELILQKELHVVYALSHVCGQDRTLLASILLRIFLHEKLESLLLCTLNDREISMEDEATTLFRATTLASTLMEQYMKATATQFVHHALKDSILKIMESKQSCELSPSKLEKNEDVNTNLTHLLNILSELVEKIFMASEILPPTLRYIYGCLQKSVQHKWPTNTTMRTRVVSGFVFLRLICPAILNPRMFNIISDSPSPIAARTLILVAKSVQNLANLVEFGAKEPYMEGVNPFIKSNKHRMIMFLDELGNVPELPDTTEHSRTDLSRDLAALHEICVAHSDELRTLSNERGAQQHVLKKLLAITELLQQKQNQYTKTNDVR", "assay": "pull-down; GST-merlin fragments pull down FL RasGAP purified from E. coli; western blot", "settings": "both partners purified"}
{"binder": "GST-merlin aa 1–73 (domain or fragment, UniProt P35240 1-73, looked up, merlin (NF2), part of the F1 subdomain of the FERM domain, aa 1-73; also called aa 1–73 fragment; part of merlin's F1 subdomain) MAGAIASRMSFSSLKRKQPKTFTVRIVTMDAEMEFNCEMKWKGKDLFDLVCRTLGLRETWFFGLQYTIKDTVA", "values": [{"measurement": "binding result", "result": "binds"}]}
